# Earlier results as cited in PMC10536416.
# Read-outs that look alike come from different tables or passages of the source.
# Key:
# [1] = biological target: Amyloid beta 1-42 Abeta 1-42 (Homo sapiens) (UniProt P05067)
# [2] = biological target: Amyloid beta 1-42 Abeta 1-42 (Homo sapiens) (UniProt P05067); remark: listed apart in the source
Substance,Kd [1],Kd [2]
Amyloid beta 1-40 Abeta 1-40 (from UniProt P05067),266 nM,–
Amyloid beta 1-40 on dextran-coated iron oxide nanoparticles Abeta 1-40 (from UniProt P05067),–,202 nM
